Measurements from publication PMC2148453.

Assays:
[1] = target: microtubules (taxol-stabilised, polymerised from PC-tubulin; tubulin alpha-beta heterodimer) (UniProt P02550); assay: cryo-EM structure
[2] = target: microtubules (taxol-stabilised, polymerised from PC-tubulin; tubulin alpha-beta heterodimer) (UniProt P02550); assay: co-sedimentation

Chain of UniProt P02550 (P02550 whole entry, looked up, one chain of several): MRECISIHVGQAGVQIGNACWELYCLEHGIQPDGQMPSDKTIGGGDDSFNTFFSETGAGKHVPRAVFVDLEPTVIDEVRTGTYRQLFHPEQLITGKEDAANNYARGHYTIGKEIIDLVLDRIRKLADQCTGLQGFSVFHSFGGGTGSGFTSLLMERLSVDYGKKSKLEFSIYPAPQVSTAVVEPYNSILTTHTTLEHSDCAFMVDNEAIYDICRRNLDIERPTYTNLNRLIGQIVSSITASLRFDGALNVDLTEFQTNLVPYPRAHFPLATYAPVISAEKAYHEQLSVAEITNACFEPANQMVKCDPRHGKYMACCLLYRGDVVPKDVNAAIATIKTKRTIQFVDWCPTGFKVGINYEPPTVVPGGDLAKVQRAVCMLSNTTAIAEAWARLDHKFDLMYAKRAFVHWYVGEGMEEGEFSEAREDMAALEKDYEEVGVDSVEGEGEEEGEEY

rat kinesin construct rK354 (from UniProt P56536 1-354) (domain or fragment)
stoichiometry N (kinesin head per tubulin heterodimer) [1]: 1

rat kinesin construct rK379 (from UniProt P56536 1-379) (domain or fragment)
Kd [2]: 400 nM
stoichiometry N (kinesin heads per tubulin dimer) [2]: 1.1
stoichiometry N (head per tubulin dimer) [1]: 1
stoichiometry N (head per tubulin heterodimer) [1]: 1
